Laboratory results from paper PMC10875708 (2024).

B1: Stearoyl-CoA desaturase (SCD1) [human (endogenous in HCT116)] / Sulfotransferase family 2B member 1 (SULT2B1) [human (endogenous in HCT116)] (parent complex)
chain 1: MPAHLLQDDISSSYTTTTTITAPPSRVLQNGGDKLETMPLYLEDDIRPDIKDDIYDPTYKDKEGPSPKVEYVWRNIILMSLLHLGALYGITLIPTCKFYTWLWGVFYYFVSALGITAGAHRLWSHRSYKARLPLRLFLIIANTMAFQNDVYEWARDHRAHHKFSETHADPHNSRRGFFFSHVGWLLVRKHPAVKEKGSTLDLSDLEAEKLVMFQRRYYKPGLLMMCFILPTLVPWYFWGETFQNSVFVATFLRYAVVLNATWLVNSAAHLFGYRPYDKNISPRENILVSLGAVGEGFHNYHHSFPYDYSASEYRWHINFTTFFIDCMAALGLAYDRKKVSKAAILARIKRTGDGNYKSG
chain 2: MDGPAEPQIPGLWDTYEDDISEISQKLPGEYFRYKGVPFPVGLYSLESISLAENTQDVRDDDIFIITYPKSGTTWMIEIICLILKEGDPSWIRSVPIWERAPWCETIVGAFSLPDQYSPRLMSSHLPIQIFTKAFFSSKAKVIYMGRNPRDVVVSLYHYSKIAGQLKDPGTPDQFLRDFLKGEVQFGSWFDHIKGWLRMKGKDNFLFITYEELQQDLQGSVERICGFLGRPLGKEALGSVVAHSTFSAMKANTMSNYTLLPPSLLDHRRGAFLRKGVCGDWKNHFTVAQSEAFDRAYRKQMRGMPTFPWDEDPEEDGSPDPEPSPEPEPKPSLEPNTSLEREPRPNSSPSPSPGQASETPHPRPS

Variants of: B1
Assay: co-IP (IP: SCD1, IB: SULT2B1), band quantification; HCT116 cells; parent: 1; read off a plot

Variant | ratio to parent
chain 1 S80F | ~0.4
chain 1 S80R | ~0.35
chain 1 H83M | ~1.2
chain 1 F178A | ~2.4

The remaining lines, values ahead:

ratio to parent | Variant
~0.5 | chain 1 S80E
~2.6 | chain 1 F178G
